Tested on: MS2 coat protein
Assay: apparent KD of MS2 coat protein; designed switch direction (-1 OFF switch, 1 ON switch): 1; higher = weaker reporter binding
In short: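 Three titration conditions were used: no input, 200 uM small-molecule ligand, and an oligonucleotide input. In each, SNAP-549-labelled MS2 coat protein was raised from 0.7 or 1.5 nM, doubling, to 3 µM over designed RNA switches transcribed on Illumina chips by stalled E. coli RNA polymerase. Curve fits of normalised cluster fluorescence gave values whose per-design median over clusters is the apparent KD.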

[1] = input ligand: microRNA oligo, concentration not stated
[2] = Eterna round: R95, input ligand: FMN 200 uM
[3] = Eterna round: R95, input ligand: microRNA oligo, concentration not stated
[4] = Eterna round: R95, input ligand: none

Sequence | apparent KD of MS2 coat protein (input ligand: FMN 200 uM) | apparent KD of MS2 coat protein [1] | apparent KD of MS2 coat protein (input ligand: none) | apparent KD of MS2 coat protein [2] | apparent KD of MS2 coat protein [3] | apparent KD of MS2 coat protein [4]
UUAUCUCAGACAUGAGGAUCACCCAUGUUUUUUUGUCUUUGACAGGAUAUAGUUGUUUCGUUUUACUAGAAGGGUCAUUUUAUU [JR_SSNG3_Sub024] (Eterna round: R96, puzzle: Same State NG 3) | 20.3 nM | 20.8 nM | 29.8 nM | – | – | –
UUGGUGUAGAUACAGGAUAUGUUGAUUGUAACAUGAGGAUCACCCAUGUAUCUAUGAGAUUAAAUGCAGAAGGGUGCACAUCACU [salish99_ss2_r3_090] (puzzle: Same State 2) | – | – | – | 209 nM | 92.9 nM | 276 nM
AUGAUUUAUGCAGGAUAUGAUUAACAUGAGGAUCACCCAUGUGGUGUUGUGAGUAAGGAGAGUGAUCAGAAGGGCAUUUUUUUU [JMF's solution 71] (Eterna round: R96, puzzle: Same State NG 2) | 1170 nM | 402 nM | 506 nM | – | – | –
CUGAGCGAUCAAGGAUAUCACGUCGUUUAGACGUGAGAAGGUGAUAAUUACAUGAGGAUCACCCAUGUAUAACAUGAAGCUCAG [SSNG1/9-A3] (Eterna round: R96, puzzle: Same State NG 1) | 14 nM | 16.4 nM | 21 nM | – | – | –
AUGAAUUUGCGAGGAUAUCGUUUGUUGAAGUUACGAGAAGGCGCUCACUUUACAUGAGGAUCACCCAUGUUUAUGUUUUAUGAU [JR_SSNG1_Sub075] (Eterna round: R96, puzzle: Same State NG 1) | 22 nM | 21.6 nM | 31.1 nM | – | – | –
CAGCGCUGUCGAGAGGAUAUGCUGUGAUGGACAUGAGGAUCACCCAUGUUAGCGAUAGCAUUACUGUAGAAGGCUCUACAGCUGC [Soteed - 15] (puzzle: Same State 2) | – | – | – | – | 10.9 nM | –
AUUAAACAUGAGGAUCACCCAUGUCAACAAAGUCGAGGAUAUGGGCAAAUAUUAUAAUAACCAGAAGGCGAAUAAU [salish99_ss1_r3_082] (puzzle: Same State 1) | – | – | – | 27.4 nM | 212 nM | 149 nM
CGUCCCUCCACAGGAUAUCGACCAUUAAAACGGCGAGAAGGGUGGCCACAUGAGGAUCACCCAUGUGGAAUUGGACAAGCUACC [Veonso] (Eterna round: R96, puzzle: Same State NG 1) | 127 nM | 23.9 nM | 127 nM | – | – | –
AUUAAUAAUCGAGGAUAUCACGUCGAUUAGACGUGAGAAGGCGAUCAUAACAUGAGGAUCACCCAUGUAUUACAUGAAGUUAAU [SSNG1/4-B2] (Eterna round: R96, puzzle: Same State NG 1) | 25.3 nM | 23.7 nM | 28.2 nM | – | – | –
GUAGUACAUGAGGAUCACCCAUGUUUCCUCCAAGAGUUCUUCGAGGAUAUGUCAUGGAAUCCACAAUAGAAGGCGGAGAACCAA [Eternabot solution 39] (Eterna round: R96, puzzle: Same State NG 3) | 403 nM | 526 nM | 462 nM | – | – | –
AUUAUUAAUGCAGGAUAUGAUUAACAUGAGGAUCACCCAUGUGGUGUUGUGAGUAAGGAGAGUGAUCAGAAGGGCAUUUUUUUG [JMF's solution 19] (Eterna round: R96, puzzle: Same State NG 2) | 420 nM | 423 nM | 452 nM | – | – | –
GGUCCAGCCUGAGCUGGACAAAAGCAUGUACAUGAGGAUCACCCAUGUCAUGUACAAGCUUUUUGCUCGUCUUAAAG [Mat - hsa-mir-208a - 85] (puzzle: Sensor for hsa-mir-208a) | – | – | – | 195 nM | 18.1 nM | 367 nM
UUAAUGAAGUAAGGAUAUACAUGAGGAAUUCUCGUAGAAGGUACUAUACAUGAGGAUCACCCAUGUGCCGGUCAGAAGACUGGA [Mat - Same State NG 1 - JL mod - D11] (Eterna round: R96, puzzle: Same State NG 1) | 454 nM | 302 nM | 415 nM | – | – | –
UGGUAACAUGAGGAUCACCCAUGUCAAAUGAAUCUAGGAUAUGGGAAAGGAGAAGAGAAACCAGAAGGAGAGGUUG [Altered State 1-14 - Jieux - Same State 1] (puzzle: Same State 1) | – | – | – | 179 nM | 63.1 nM | 107 nM
CCGCCGGGAACCCGGCGGAAACAUGAGGAUCACCCAUGUACACAGGAUAUCGUGACAUUAACAAACGAGAAGGGUGGCCGAGAC [Atre] (Eterna round: R96, puzzle: Same State NG 3) | 345 nM | 91.6 nM | 137 nM | – | – | –
UUAUUAUUUACAUGAGGAUCACCCAUGUUUUUAUGUCAGAGAUAGGAUAUAGUUUUCUCGUUUUUCUAGAAGGAUCUUUUUAUU [JR_SSNG3_Sub085] (Eterna round: R96, puzzle: Same State NG 3) | 18.6 nM | 17 nM | 22.8 nM | – | – | –

Sequence | apparent KD of MS2 coat protein (input ligand: FMN 200 uM) | apparent KD of MS2 coat protein [1] | apparent KD of MS2 coat protein (input ligand: none) | apparent KD of MS2 coat protein [2] | apparent KD of MS2 coat protein [3] | apparent KD of MS2 coat protein [4]
CGUCCAGCCUGAGCUGGACAAAAGCAUGUACAUGAGGAUCACCCAUGUUCAUGUACAAGCUUUUUGCUCGUCUUAUU [salish99_208a_r3_050] (puzzle: Sensor for hsa-mir-208a) | – | – | – | 681 nM | 16.1 nM | 739 nM
GCGUUUAACGUAGGAUAUCGACCUACAUGAGGAUCACCCAUGUCUUUGUAUAGUUUUUUUUGUUACGAGAAGGACGUUUUGCAU [JR_SSNG2_Sub070] (Eterna round: R96, puzzle: Same State NG 2) | 75.1 nM | 95.2 nM | 122 nM | – | – | –
CCAUAGUACAAUUUAGAUCUACAUGAGGAUCACCCAUGUACUGAGGAUAUCAGCUCGAAUAGAGCUGAGAAGGCAGAAUUAAUU [SSNG3/5-A1] (Eterna round: R96, puzzle: Same State NG 3) | – | 103 nM | – | – | – | –
AGGAAGGAGACUGAGGAUAUCGUUGAAAGGACAUGAGGAUCACCCAUGUGUAUAGGAUUGGAGAACGAGAAGGCAGAGGAGUGGA [JR_SS2_Sub045] (puzzle: Same State 2) | – | – | – | 36.4 nM | 46.6 nM | 71.2 nM
GGAGAACAUGAGGAUCACCCAUGUGGAUGGGCGCUAGGAUAUGCGGGAGGGUGAAGAGAAGCAGAAGGAGUGGAUA [JR_SS1_Sub035] (puzzle: Same State 1) | – | – | – | – | 56.7 nM | –
GUGGUCAGACAUGAGGAUCACCCAUGUGGAAUAAAUAACAGACAGGAUAUCAAAUAUAGGAUAUAUGAGAAGGGUCGAUUGGUG (Eterna round: R96, puzzle: Same State NG 3) | – | 81 nM | – | – | – | –
CUUUCUCUUGCAGGAUAUCCUAGUCUUCGGUUAGGAGAAGGGCAAGGAAACUUGCUAAGCAAGUCUGUAACAGAGAUCCUUCCU [pwkr ssNG1 F9.2] (Eterna round: R96, puzzle: Same State NG 1) | 124 nM | 78.2 nM | 164 nM | – | – | –
UUAUCUCAGACAUGAGGAUCACCCAUGUGGUUAUGACUUAGACAGGAUAUAGUAGUAUCGAAAUACUAGAAGGGUCAUUUUAUU [JR_SSNG3_Sub021] (Eterna round: R96, puzzle: Same State NG 3) | 73.4 nM | 97.5 nM | 143 nM | – | – | –
CAAGUACAUGAGGAUCACCCAUGUGGAAGAGAUGCAGGAUAUGUGGGAGAAGGGAGUGUAACAGAAGGGCAAGGAG [JR_SS!_Sub019] (puzzle: Same State 1) | – | – | – | 113 nM | 71.8 nM | 109 nM
UGUCCAGCCUGAGCUGGACAAAAGCAUGUACAUGAGGAUCACCCAUGUUCAUGUACAAGCUUUUUGCUCGUCUUAAC [salish99_208a_r3_033] (puzzle: Sensor for hsa-mir-208a) | – | – | – | 354 nM | 14.1 nM | 465 nM
CUGAGCAAUCUAGGAUAUCACGUCGAUUAGACGUGAGAAGGAGAUCAUAACAUGAGGAUCACCCAUGUAUUACAUGAAGCUCAG [SSNG1/7-A2] (Eterna round: R96, puzzle: Same State NG 1) | 11.7 nM | 13.8 nM | 19.1 nM | – | – | –
AGCUUCAAACUUUGCUCGUCGCGCCAGCGACAUGAGGAUCACCCAUGUGGGCGCAACCUCGUUAGCCCGAGGGCUCG [Labire] (puzzle: Sensor for hsa-mir-208a) | – | – | – | 27.1 nM | 14 nM | 29 nM
CUGAGCAAGCAAGGAUAUCACGUCGAAUAGACGUGAGAAGGUGCUCCUUACAUGAGGAUCACCCAUGUAUAACAUGAAGCUCAG [SSNG1/10-A1] (Eterna round: R96, puzzle: Same State NG 1) | 254 nM | 869 nM | 1260 nM | – | – | –
UUACUCAUGUAAGGAUAUGCAGCCGAAACGGCUGCAGAAGGUACUAUAAUACAUGAGGAUCACCCAUGUAAAAUAAAUAAAGUU [Mat - Same State NG 1 - JL mod - D97] (Eterna round: R96, puzzle: Same State NG 1) | 29.1 nM | 32 nM | 35.9 nM | – | – | –
CUGUGUUGCGGGCAGGAUAUGUACUUGAGUACAUGAGGAUCACCCAUGUGCGGGUGUUUCACCCGACAGAAGGGCCUAUCGCGAC [JL-ss2-3.24 ViennaUCT mod] (puzzle: Same State 2) | – | – | – | 140 nM | 395 nM | 329 nM
UGGUACAUGGGAGGAUAUGGAGUGAUGACAUGAGGAUCACCCAUGUUAUAAAUGCCGAGAGGCAACUAGAAGGCCCAUGUACCU [JL SSNG1 3.95] (Eterna round: R96, puzzle: Same State NG 2) | 23.2 nM | 149 nM | 149 nM | – | – | –

Source: the supplement of paper PMC9170038
